The supplement of paper PMC10126150
± gives the standard deviation of the averaged measurements.

Test system: ATP
Experiment: switch fluorescence ratio, 500 uM ATP over buffer (Cy3 cluster intensity, sum of 5 cycles each) (fold (ratio)); higher = stronger signal-on switching upon ATP binding; sequences stand for … in TCGTCGGCAGCGTCAGATGTGTATAAGAGACAGTTTTTTTTTTTTTTTTTTTTTTTTT…TC
Settings: aptamer strand: ATP DNA aptamer (quencher-CACCTGGGGGAGTATTGCGGAGGAAGG + anchor), 100 nM annealed; ATP concentration: 500 uM
Procedure, shortened: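 The quencher-labelled ATP aptamer, at 100 nM, was annealed to Cy3-labelled switching-strand clusters on a modified Illumina MiSeq flow-cell. The clusters were imaged in selection buffer, then after 15 min with 500 uM ATP at 22 °C, and this buffer/ATP cycle ran five times with NaOH stripping and re-annealing between runs. Per-cluster fluorescence ratios, summed target-cycle over summed buffer-cycle Cy3 intensity, were averaged per switch-domain sequence. Clusters outside 100-1000 RFU were excluded.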
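Also: ATP exposure 15 min at 22 °C before imaging.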

| Sequence | switch fluorescence ratio |
| --- | --- |
| CTCTAACAGC | 1.08 ± 0.022 |
| TAATAGGGCG | 1.01 ± 0.076 |
| CGGACTCATT | 1.09 ± 0.15 |
| AAGTCATTAA | 0.99 ± 0.031 |
| CCTTGATCTG | 1.06 ± 0.02 |
| AGAAACCGTA | 1.1 ± 0.031 |
| TTTGGTTCTG | 1.01 ± 0.012 |
| GATGCTGTGG | 0.958 ± 0.003 |
| TTGCCAAGGT | 1 ± 0.013 |
| CATATGTTTT | 1 ± 0.035 |
| CTGGGGGAAC | 1.004 ± 0.0049 |
| TTGTGAAAGA | 1.01 ± 0.021 |
| ACCGGTTGCC | 0.974 ± 0.058 |
| GATTTGTTGG | 0.9815 ± 0.0055 |
| TTAAAAGGGT | 0.99 ± 0.013 |
| TTAAAAGTTG | 1.051 ± 0.0097 |
| TATTGGTTCA | 0.996 ± 0.018 |
| TATGCCATTT | 1.0337 ± 0.00046 |
| GTTTTAAGCT | 1.023 ± 0.0058 |
| CATCATTGGC | 0.974 ± 0.092 |
| CGGTTAGCGG | 0.983 ± 0.044 |
| GCTCTAGGGA | 0.984 ± 0.043 |
| TTATTAGAAG | 0.978 ± 0.012 |

| Sequence | switch fluorescence ratio |
| --- | --- |
| GCTCAGGCTG | 1.02 ± 0.024 |
| TCATAGTGTT | 1.01 ± 0.04 |
| GGGAACGGCC | 1.054 ± 0.0036 |
| GGGATTTTGT | 0.983 ± 0.012 |
| TATGAGGATC | 1.01 ± 0.039 |
| GGCCAAGGTG | 2.05 ± 0.42 |
| TTGGGGAGAG | 0.991 ± 0.01 |
| CTGTAAAGAG | 0.99 ± 0.035 |
| CTTCAAAGTA | 1.03 ± 0.026 |
| TCAAATGGTA | 1.006 ± 0.0037 |
| TAAAAGGGAT | 1.01 ± 0.023 |
| GGAATCAAGG | 1.02 ± 0.035 |
| TTTTCACTTT | 1.01 ± 0.046 |
| CTTTTAGTGG | 0.9714 ± 0.0059 |
| GATGGTTAGT | 0.974 ± 0.036 |
| ATAGGGCCTT | 1.02 ± 0.05 |
| GGGGAGAGAG | 0.9747 ± 0.0073 |
| TATTCTGGTT | 1.02 ± 0.05 |
| CGTGACCGGG | 0.996 ± 0.016 |
| CGCTGAGATC | 1.016 ± 0.002 |
| TCTCTGGCAT | 1.79 ± 0.19 |
| TTTGTGGCTG | 0.986 ± 0.037 |
| GGCGATGGGG | 0.979 ± 0.023 |

| Sequence | switch fluorescence ratio |
| --- | --- |
| ATTCAGTAAA | 1 ± 0.022 |
| AACCTATGCT | 1.012 ± 0.0018 |
| GGCCGCACGC | 3.69 ± 0.059 |
| GGGGCACTGC | 1.008 ± 0.0024 |
| AATAGGCATG | 0.979 ± 0.0098 |
| GGATGCGGGT | 1 ± 0.03 |
| GAAATGAATA | 1 ± 0.011 |
| TGGGGTCGTG | 0.964 ± 0.022 |
| ATTTTACTAA | 1.05 ± 0.021 |
| GGACCCAATG | 0.986 ± 0.011 |
| TCTTAGTGGG | 1.01 ± 0.017 |
| AGAAGTACTA | 1.22 ± 0.036 |
| GATCTTTCTG | 0.994 ± 0.041 |
| GATAGAGGGT | 1.01 ± 0.033 |
| GGGGTTTGG | 1.004 ± 0.0067 |
| ACATGTTATT | 1.01 ± 0.035 |
| ATCCGGGTTC | 1 ± 0.015 |
| TCTTGTTAT | 1.01 ± 0.051 |
| GGACATTTAG | 1.03 ± 0.017 |
| ACCACGGGGT | 1.02 ± 0.038 |
| AATGAGATTG | 0.989 ± 0.012 |
| CGTAGGAGGG | 0.997 ± 0.04 |
| TACAGACTGT | 1.04 ± 0.021 |

| Sequence | switch fluorescence ratio |
| --- | --- |
| AGTAGGGGCG | 1.03 ± 0.033 |
| TCTTTTGTG | 1.13 ± 0.2 |
| GAGGAGAGGT | 1 ± 0.015 |
| TTTTCTATGG | 1 ± 0.082 |
| AATCTTCTTA | 1.001 ± 0.0034 |
| GATTGGGGCG | 1.02 ± 0.015 |
| TAGGGCAGAG | 0.994 ± 0.021 |
| TGAGCGGGGG | 0.996 ± 0.021 |
| TCGGGTTTGG | 1.01 ± 0.041 |
| GTTTTAAAAG | 0.979 ± 0.01 |
| AAATGGTTGG | 0.995 ± 0.025 |
| GTTATTGTGT | 0.999 ± 0.028 |
| TGACACAGTA | 1.26 ± 0.21 |
| AGGGATAGTT | 0.992 ± 0.0047 |
| ATTTACCAGG | 1.18 ± 0.26 |
| AGACACGAAT | 0.9811 ± 0.0068 |
| TTCGGTGGGT | 0.988 ± 0.027 |
| ATCGTCGTGC | 0.975 ± 0.015 |
| ACTATAGGAC | 1.07 ± 0.017 |
| TAGAGGCAGG | 0.985 ± 0.018 |
| TTTTGCAGCT | 1 ± 0.019 |
| TTGGGGATTA | 1.09 ± 0.18 |
| GATGTTAGGA | 0.978 ± 0.034 |

| Sequence | switch fluorescence ratio |
| --- | --- |
| ATTGTAAAGC | 0.9935 ± 0.0083 |
| TGGATCATAA | 0.973 ± 0.068 |
| TTTATCTAGG | 1.02 ± 0.017 |
| TTTCCTCAG | 1.3 ± 0.4 |
| GGAAGTCGTT | 0.994 ± 0.016 |
| GGGTATTAGC | 0.982 ± 0.053 |
| TAGTAGGCCA | 1.01 ± 0.055 |
| AAATGTAAAA | 1.01 ± 0.042 |
| GGTTAGTGTG | 0.997 ± 0.015 |
| TTATAAG | 1.003 ± 0.0067 |
| GTTGTAGACA | 0.9847 ± 0.0048 |
| TAACGGGGTA | 1.01 ± 0.02 |
| GGACTGGATG | 1 ± 0.031 |
| ATTTGGCTGG | 0.986 ± 0.015 |
| GCCGGAAAAC | 2.35 ± 0.2 |
| CTTTGTCTGA | 1.022 ± 0.0085 |
| CTTATCTCTG | 1.05 ± 0.019 |
| TGCGGAGAAT | 1.028 ± 0.0026 |
| GGGAGCCAGT | 1.05 ± 0.12 |
| GCCTGTACTT | 0.9883 ± 0.0046 |
| CGCTAAAGGG | 1.042 ± 0.0042 |
| TGGGGTCGTC | 1.038 ± 0.0087 |
| AGGTCGTTTT | 0.991 ± 0.027 |

| Sequence | switch fluorescence ratio |
| --- | --- |
| CGGCTTGATA | 1.01 ± 0.033 |
| GGGGTTTCGG | 1.02 ± 0.087 |
| TCCAATCATG | 0.9765 ± 0.0095 |
| AAAGAAAGAT | 1.08 ± 0.17 |
| GAACCAGGGG | 1.27 ± 0.088 |
| AATCAGGCGA | 1.013 ± 0.0032 |
| AGCCTTTTTT | 0.982 ± 0.011 |
| TCTTGCGTGG | 0.954 ± 0.01 |
| TACCGTGTCC | 1.11 ± 0.06 |
| GAGGTGGTGC | 0.966 ± 0.072 |
| GGTTCGGGAA | 0.9965 ± 0.0022 |
| TAATAGGGAT | 0.98 ± 0.019 |
| GGGTCGCAGC | 0.998 ± 0.015 |
| CGGGATATCG | 1.01 ± 0.029 |
| GATGCTTCTG | 1.02 ± 0.032 |
| CCCGGGTCGC | 1.05 ± 0.012 |
| GGGGCGGCGT | 1.02 ± 0.065 |
| ATTTGTGTA | 0.992 ± 0.012 |
| ATGGCATAAG | 1.003 ± 0.0044 |
| TGGGCAGGGA | 0.9817 ± 0.0024 |
| TGATGTTGGT | 0.988 ± 0.014 |
| GTAGGTCGAC | 1.01 ± 0.012 |
| TTGAGTTACT | 0.981 ± 0.063 |

| Sequence | switch fluorescence ratio |
| --- | --- |
| GTGTAGGGAT | 0.964 ± 0.015 |
| GTTTAGTC | 0.976 ± 0.025 |
| TACGGATTGT | 0.988 ± 0.027 |
| TGAAGTAAGG | 1.03 ± 0.029 |
| CAAGCGGGGG | 1.01 ± 0.05 |
| TTGTAGGGAG | 1 ± 0.027 |
| TATTTATAAA | 0.998 ± 0.025 |
| AATGGATTGG | 0.997 ± 0.018 |
| CACGTCTGAA | 0.996 ± 0.047 |
| AGGTTAGCGT | 0.9946 ± 0.0013 |
| GTATCCGGGA | 1.02 ± 0.057 |
| CATTGTGACT | 1 ± 0.016 |
| TTAGGGGAAG | 1.01 ± 0.022 |
| GCTGGGGTAT | 0.984 ± 0.015 |
| ATTTGGTGAG | 0.983 ± 0.03 |
| TTTAATGCCG | 0.954 ± 0.027 |
| TTGGATGTGT | 0.9407 ± 0.001 |
| CTGGTTGATT | 0.997 ± 0.04 |
| GCGCCTGTAT | 0.986 ± 0.046 |
